B1: F1*; the commonest letter at each place (parent)
chain: GAGACCGCAACTGAAAAGTTGTTATCACTTGTCGTAAGACACTTTGGATGGGTTGAAGTTCTGCACGTAGAAGCAAAAGGC

Variants of: B1
Assay: fraction ligated after 30 min (ligated reads / total reads); higher = more ligase activity
Conditions: with F1*sub RNA substrate (template-directed ligation), 42 °C
Method: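 Chip-synthesised pool of F1* ligase ribozyme variants (all single and double substitutions, single, double and triple deletions in the catalytic core and GAA bulge, plus designed variants) was transcribed with T7 and reacted as a pool with excess substrate F1*sub for 30 min at 42 C in 50 mM EPPS pH 8.5, 25 mM MgCl2. Ligated and unligated bands were separated by PAGE, barcoded by RT and deep sequenced; fraction ligated = ligated reads / total reads per variant, relative activity = FL / FL of wild type (0.826). Sequences are the DNA template of the ribozyme.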

First: G34T C40A
Second: C40A A48G
The fraction ligated of the first is higher: 0.802 for the first, 0.739 for the second.

Going from A36C G55T to C33T, the fraction ligated rises from 0.797 to 0.869.

Compared with T25A C26T, T30A G38T is higher in fraction ligated: 0.129 for the first, 0.832 for the second.

First: T35G A37G
Second: C26A A39T
The fraction ligated of the first is higher: 0.847 for the first, 0.721 for the second.

Going from C28G G46C to C40G G47A, the fraction ligated falls from 0.792 to 0.783.

Compared with G31C A36T, T32G G55T is higher in fraction ligated: 0.79 for the first, 0.798 for the second.

First: T32G G55A
Second: T44C G47C
The fraction ligated of the first is higher: 0.803 for the first, 0.0629 for the second.

First: T44C G50C
Second: T44C G50T
The fraction ligated of the first is lower: 0.224 for the first, 0.691 for the second.

Compared with T23A C28T, T43C G50C is lower in fraction ligated: 0.753 for the first, 0.111 for the second.

First: A37G A41G
Second: G31C G46C
The fraction ligated of the first is higher: 0.822 for the first, 0.732 for the second.

Compared with G31C G46A, T23A A41C is lower in fraction ligated: 0.797 for the first, 0.757 for the second.

First: A48G
Second: A36T A57T
The fraction ligated of the first is lower: 0.794 for the first, 0.824 for the second.

Compared with A24T T49G, A27T T44A is higher in fraction ligated: 0.783 for the first, 0.825 for the second.

First: C26A T49G
Second: G38T T45G
The fraction ligated of the first is higher: 0.502 for the first, 0.0535 for the second.

Compared with A41T G46T, A24G A37T is lower in fraction ligated: 0.787 for the first, 0.764 for the second.

Compared with T43G T49C, A27C T29C is higher in fraction ligated: 0.726 for the first, 0.802 for the second.

Going from T32C G34C to T35A G47T, the fraction ligated falls from 0.772 to 0.398.

First: A24C G50T
Second: C33A A56C
The fraction ligated of the first is lower: 0.646 for the first, 0.742 for the second.

First: C33T G55T
Second: C42G G47A
The fraction ligated of the first is higher: 0.839 for the first, 0.805 for the second.

Compared with T44A G50T, C40G A56C is higher in fraction ligated: 0.758 for the first, 0.784 for the second.

First: A27T T45C
Second: A27T T45G
The fraction ligated of the first is higher: 0.762 for the first, 0.16 for the second.

Going from A24G C33G to G38C G47A, the fraction ligated falls from 0.785 to 0.306.

Going from T25C G38C to C28T G38C, the fraction ligated rises from 0.0674 to 0.799.

Going from T25G A37T to A37T, the fraction ligated rises from 0.808 to 0.853.

Going from G34A T43A to A27T T30G, the fraction ligated rises from 0.836 to 0.84.

Going from A27G G34T to A36T T43G, the fraction ligated rises from 0.804 to 0.812.

Compared with G31A A48T, G31A A48G is higher in fraction ligated: 0.01 for the first, 0.254 for the second.

Compared with T30C G31C T32G C33G G38C A39C C40G A41G, C33G C40T is lower in fraction ligated: 0.839 for the first, 0.825 for the second.

Going from C28G T43C to A37T C42T, the fraction ligated rises from 0.798 to 0.858.

Going from T49C A57T to G38T A56C, the fraction ligated rises from 0.3 to 0.745.

First: T49A A57T
Second: C33G A48C
The fraction ligated of the first is lower: 0.724 for the first, 0.727 for the second.

Compared with G38C T49G, C42T G46T is higher in fraction ligated: 0.255 for the first, 0.805 for the second.

First: T44A A48T
Second: C40T T49C
The fraction ligated of the first is higher: 0.82 for the first, 0.38 for the second.

First: G31C A56T
Second: T35C A37T
The fraction ligated of the first is lower: 0.694 for the first, 0.847 for the second.

Going from T35C A37G to T35C A37C, the fraction ligated falls from 0.881 to 0.845.

Going from C26T A39C to G55A A56C, the fraction ligated falls from 0.789 to 0.729.

First: A36C T49G
Second: T32A T44G
The fraction ligated of the first is lower: 0.798 for the first, 0.814 for the second.

Going from T43A T45C to A27T A36T, the fraction ligated rises from 0.696 to 0.798.

Going from G34C A39T to C33G T35C, the fraction ligated rises from 0.781 to 0.825.

Compared with A24T G34A, A24C A37C is lower in fraction ligated: 0.789 for the first, 0.716 for the second.

Compared with C28G G55C, A39T T44C is higher in fraction ligated: 0.28 for the first, 0.821 for the second.

G47T T49C gave a fraction ligated of 0.0788.
